B1: EH domain-containing protein 1 (Homo sapiens), Q9H4M9 (parent)
chain: MFSWVSKDARRKKEPELFQTVAEGLRQLYAQKLLPLEEHYRFHEFHSPALEDADFDNKPMVLLVGQYSTGKTTFIRHLIEQDFPGMRIGPEPTTDSFIAVMHGPTEGVVPGNALVVDPRRPFRKLNAFGNAFLNRFMCAQLPNPVLDSISIIDTPGILSGEKQRISRGYDFAAVLEWFAERVDRIILLFDAHKLDISDEFSEVIKALKNHEDKIRVVLNKADQIETQQLMRVYGALMWSLGKIINTPEVVRVYIGSFWSHPLLIPDNRKLFEAEEQDLFKDIQSLPRNAALRKLNDLIKRARLAKVHAYIISSLKKEMPNVFGKESKKKELVNNLGEIYQKIEREHQISPGDFPSLRKMQELLQTQDFSKFQALKPKLLDTVDDMLANDIARLMVMVRQEESLMPSQVVKGGAFDGTMNGPFGHGYGEGAGEGIDDVEWVVGKDKPTYDEIFYTLSPVNGKITGANAKKEMVKSKLPNTVLGKIWKLADVDKDGLLDDEEFALANHLIKVKLEGHELPADLPPHLVPPSKRRHE
B2: MICAL-like protein 1 (Homo sapiens), Q8N3F8 (parent)
chain: MAGPRGALLAWCRRQCEGYRGVEIRDLSSSFRDGLAFCAILHRHRPDLLDFDSLSKDNVFENNRLAFEVAEKELGIPALLDPNDMVSMSVPDCLSIMTYVSQYYNHFCSPGQAGVSPPRKGLAPCSPPSVAPTPVEPEDVAQGEELSSGSLSEQGTGQTPSSTCAACQQHVHLVQRYLADGRLYHRHCFRCRRCSSTLLPGAYENGPEEGTFVCAEHCARLGPGTRSGTRPGPFSQPKQQHQQQLAEDAKDVPGGGPSSSAPAGAEADGPKASPEARPQIPTKPRVPGKLQELASPPAGRPTPAPRKASESTTPAPPTPRPRSSLQQENLVEQAGSSSLVNGRLHELPVPKPRGTPKPSEGTPAPRKDPPWITLVQAEPKKKPAPLPPSSSPGPPSQDSRQVENGGTEEVAQPSPTASLESKPYNPFEEEEEDKEEEAPAAPSLATSPALGHPESTPKSLHPWYGITPTSSPKTKKRPAPRAPSASPLALHASRLSHSEPPSATPSPALSVESLSSESASQTAGAELLEPPAVPKSSSEPAVHAPGTPGNPVSLSTNSSLASSGELVEPRVEQMPQASPGLAPRTRGSSGPQPAKPCSGATPTPLLLVGDRSPVPSPGSSSPQLQVKSSCKENPFNRKPSPAASPATKKATKGSKPVRPPAPGHGFPLIKRKVQADQYIPEEDIHGEMDTIERRLDALEHRGVLLEEKLRGGLNEGREDDMLVDWFKLIHEKHLLVRRESELIYVFKQQNLEQRQADVEYELRCLLNKPEKDWTEEDRAREKVLMQELVTLIEQRNAIINCLDEDRQREEEEDKMLEAMIKKKEFQREAEPEGKKKGKFKTMKMLKLLGNKRDAKSKSPRDKS
partner: B1 chain

Variants of: B1
Details: with milk1_human MICALL1, Q8N3F8

effect of a mutation on the interaction | Variant
with no effect | MFSWVSKDARRKKEPELFQTVAEGLRQLYAQKLLPLEEHYRFHEFHSPALEDADFDNKPMVLLVGQYSTGKTTFIRHLIEQDFPGMRIGPEPTTDSFIAVMHGPTEGVVPGNALVVDPRRPFRKLNAFGNAFLNRFMCAQLPNPVLDSISIIDTPGILSGEKQRISRGYDFAAVLEWFAERVDRIILLFDAHKLDISDEFSEVIKALKNHEDKIRVVLNKADQIETQQLMRVYGALMWSLGKIINTPEVVRVYIGSFWSHPLLIPDNRKLFEAEEQDLFKDIQSLPRNAALRKLNDLIKRARLAKVHAYIISSLKKEMPNVFGKESKKKELVNNLGEIYQKIEREHQISPGDFPSLRKMQELLQTQDFSKFQALKPKLLDTVDDMLANDIARLMVMVRQEESLMPSQVVKGGAFDGTMNGPFGHGYGEGAGEGIDDVEWVVGKDKPTYDEIFYTLSPVNGKITGANAKKEMVKSKLPNTVLGEIWKLADVDKDGLLDDEEFALANHLIKVKLEGHELPADLPPHLVPPSKRRHE [K483E]

Variants of: B2
Details: with ehd1_human EHD1, Q9H4M9

effect of a mutation on the interaction | Variant
disrupting interaction | N425A;F427A

Variants of: B2
Details: with ehd1_human EHD1, Q9H4M9
Remark: another data set of the same source

effect of a mutation on the interaction | Variant
decreasing interaction | N425A;F427A
